In the supplement of paper PMC6757056:
± gives the standard deviation of the averaged measurements.

B1: library; a variant is named by its letters at N, in order (parent)
chain: GCUGUCACCGAGAAACUGUGAAGUAUAUCUUAAACCUGGGCACUUAAAAGAUAUAUGGAGUUAGUAGUGCAACCUGCUCGGUCUGAUGAGUCCNNNNNNGGACGAAACAGC

Key:
cyclic di-GMP [1] = variants of: B1; assay: FACS-Seq fitted mean relative fluorescence mCherry/BFP without ligand (log10 relative fluorescence); HEK293T; ligand: cyclic di-GMP (c-di-GMP-II aptamer); higher = higher reporter protein expression; details: ligand present: no
Method in brief: (§1)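 Enriched HEK293T cells carrying, by lentivirus, an mCherry reporter with the ribozyme switch and an EF1α-BFP marker spent 48 h with or without ligand and were sorted into 6 bins by mCherry/BFP. MiSeq sequencing of PCR-amplified bin genomic DNA gave bin counts. Fluorescence was calculated as the fitted normal mean of those counts. Counts were binned on log10(mCherry/BFP), and means were scaled to five spiked-in control ribozymes.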

cyclic di-GMP [2] = variants of: B1; assay: normalized RNA/DNA level without ligand (relative to sTRSVctl = 100) (log10 (% of sTRSVctl)); HEK293T; ligand: cyclic di-GMP (c-di-GMP-II aptamer); higher = less ribozyme self-cleavage, higher mRNA level; details: reporter: mCherry (pCS4076), ligand present: no
Method in brief: (§2)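 Library plasmids encoding reporter-linked ribozyme switches (mCherry, or eGFP for some folinic acid experiments) were transfected into HEK293T at 4 µg per 6-well well. Ligand, when used, was added 1 h before transfection. Total RNA was extracted with EDTA 72 h later, then reverse-transcribed, amplified, barcoded and sequenced. RNA level was RNA reads over DNA reads, divided by a spiked-in non-cleaving control (or the top 25 sequences), ×100, log10; only sequences with ≥100 DNA reads were kept.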

cyclic di-GMP [3] = variants of: B1; assay: FACS-Seq fitted mean relative fluorescence mCherry/BFP with ligand (log10 relative fluorescence); HEK293T; ligand: cyclic di-GMP (c-di-GMP-II aptamer); ligand concentration (+) FACS-Seq: 1 mM; higher = higher reporter protein expression; details: ligand present: yes
Method in brief: as §1

cyclic di-GMP [4] = variants of: B1; assay: normalized RNA/DNA level with ligand (relative to sTRSVctl = 100) (log10 (% of sTRSVctl)); HEK293T; ligand: cyclic di-GMP (c-di-GMP-II aptamer); ligand concentration (+) RNA-Seq: 1 mM; higher = less ribozyme self-cleavage, higher mRNA level; details: reporter: mCherry (pCS4076), ligand present: yes
Method in brief: as §2

Variant | FACS-Seq fitted mean (log10) (cyclic di-GMP [1]) | normalized RNA/DNA level without ligand (log10) (cyclic di-GMP [2]) | FACS-Seq fitted mean (log10) (cyclic di-GMP [3]) | normalized RNA/DNA level with ligand (log10) (cyclic di-GMP [4])
GUAAAA | -0.251 ± 0.15 | 1.57 ± 0.024 | 0.00851 ± 0.01 | 1.73 ± 0.094
GUAAAU | -0.979 ± 0.044 | 1.6 ± 0.051 | -0.774 ± 0.011 | 1.76 ± 0.084
GUAAAG | -0.104 ± 0.13 | 1.55 ± 0.078 | 0.22888 ± 7.2e-05 | 1.74 ± 0.065
CGGGGA | -0.489 ± 0.015 | 1.54 ± 0.11 | -0.28 ± 0.044 | 1.64 ± 0.093
CGGGGC | -0.104 ± 0.11 | 1.73 ± 0.055 | 0.215 ± 0.046 | 1.84 ± 0.14
UGUCCU | -0.0961 ± 0.059 | 1.7541 ± 0.0017 | 0.158 ± 0.027 | 1.89 ± 0.1
CGGUGA | -0.266 ± 0.011 | 1.4 ± 0.13 | 0.0909 ± 0.043 | 1.64 ± 0.12
CGGUGU | -0.862 ± 0.11 | 1.68 ± 0.02 | -0.65 ± 0.12 | 1.88 ± 0.14
CGGCCA | -0.425 ± 0.033 | 1.57 ± 0.099 | -0.137 ± 0.0032 | 1.73 ± 0.11
GGUUCC | 0.28 ± 0.17 | 1.8648 ± 0.0011 | 0.396 ± 0.056 | 1.96 ± 0.085
AGUGAC | -0.339 ± 0.017 | 1.63 ± 0.038 | -0.00165 ± 0.05 | 1.77 ± 0.13
AGUGAA | -0.389 ± 0.095 | 1.36 ± 0.097 | 0.0166 ± 0.093 | 1.54 ± 0.096
CGGACG | -1.09 ± 0.056 | 1.77 ± 0.072 | -1.17 ± 0.31 | 1.87 ± 0.11
CGGACA | -0.421 ± 0.083 | 1.4 ± 0.13 | -0.265 ± 0.047 | 1.58 ± 0.085
CGGACU | -0.791 ± 0.13 | 1.48 ± 0.14 | -0.611 ± 0.11 | 1.64 ± 0.11
AUAAAG | -0.485 ± 0.024 | 1.56 ± 0.038 | -0.249 ± 0.071 | 1.73 ± 0.14
GGUAUC | -0.466 ± 0.023 | 1.63 ± 0.018 | -0.193 ± 0.022 | 1.79 ± 0.12
GGGGGC | -0.722 ± 0.011 | 1.77 ± 0.043 | -0.503 ± 0.012 | 1.87 ± 0.12
CGGCGC | -0.498 ± 0.2 | 1.8 ± 0.044 | -0.494 ± 0.095 | 1.94 ± 0.069
CGCUGU | 0.3 ± 0.092 | 1.776 ± 0.0024 | 0.433 ± 0.014 | 1.9 ± 0.13
CGCUGA | -0.177 ± 0.072 | 1.53 ± 0.057 | 0.0499 ± 0.0086 | 1.72 ± 0.067
CGGUUA | -0.67 ± 0.04 | 1.27 ± 0.12 | -0.411 ± 0.028 | 1.43 ± 0.091
AGCGAA | -0.109 ± 0.022 | 1.41 ± 0.069 | 0.163 ± 0.081 | 1.61 ± 0.15
AGGUAA | -0.299 ± 0.023 | 1.43 ± 0.034 | -0.0992 ± 0.054 | 1.56 ± 0.17

Variant | FACS-Seq fitted mean (log10) (cyclic di-GMP [1]) | normalized RNA/DNA level without ligand (log10) (cyclic di-GMP [2]) | FACS-Seq fitted mean (log10) (cyclic di-GMP [3]) | normalized RNA/DNA level with ligand (log10) (cyclic di-GMP [4])
AGGUAU | -0.276 ± 0.0093 | 1.57 ± 0.046 | 0.0998 ± 0.21 | 1.76 ± 0.066
UGUAAA | 0.0683 ± 0.13 | 1.72 ± 0.019 | 0.3702 ± 0.0013 | 1.85 ± 0.086
CGCGUA | -0.52 ± 0.06 | 1.45 ± 0.16 | -0.224 ± 0.062 | 1.638 ± 0.011
AGGAUA | -0.5971 ± 0.0057 | 1.34 ± 0.12 | -0.199 ± 0.011 | 1.49 ± 0.018
AGGAUG | -0.151 ± 0.021 | 1.48 ± 0.054 | -0.029 ± 0.059 | 1.63 ± 0.16
AGGAUC | -0.0729 ± 0.071 | 1.63 ± 0.023 | 0.137 ± 0.019 | 1.78 ± 0.1
CGUGGA | -0.426 ± 0.029 | 1.41 ± 0.1 | -0.0424 ± 0.071 | 1.62 ± 0.035
AGGCUU | 0.2 ± 0.22 | 1.655 ± 0.015 | 0.371 ± 0.029 | 1.85 ± 0.1
CGGUCA | -0.42 ± 0.019 | 1.45 ± 0.045 | -0.182 ± 0.032 | 1.59 ± 0.18
CGGUCC | -0.137 ± 0.077 | 1.8527 ± 0.0016 | 0.251 ± 0.017 | 1.96 ± 0.069
CGGCUA | -0.523 ± 0.084 | 1.33 ± 0.088 | -0.355 ± 0.014 | 1.46 ± 0.18
CGGCUU | -0.717 ± 0.062 | 1.5 ± 0.099 | -0.63 ± 0.15 | 1.67 ± 0.062
UUAAGA | -0.227 ± 0.096 | 1.613 ± 0.01 | 0.2 ± 0.0086 | 1.76 ± 0.12
AGGAAG | -0.88 ± 0.017 | 1.38 ± 0.13 | -0.6586 ± 0.0033 | 1.52 ± 0.13
AGGAAU | -0.199 ± 0.032 | 1.6 ± 0.042 | 0.123 ± 0.1 | 1.76 ± 0.1
AGGAAA | -0.514 ± 0.031 | 1.33 ± 0.15 | -0.185 ± 0.026 | 1.52 ± 0.1
CGCUCU | -0.865 ± 0.06 | 1.54 ± 0.049 | -0.64 ± 0.039 | 1.73 ± 0.1
CUAAAA | -0.3961 ± 0.0027 | 1.35 ± 0.057 | -0.114 ± 0.1 | 1.61 ± 0.075
CUAAAU | -0.443 ± 0.034 | 1.5 ± 0.1 | -0.0872 ± 0.068 | 1.69 ± 0.044
GGCGAG | -0.757 ± 0.036 | 1.5556 ± 0.00075 | -0.498 ± 0.0053 | 1.68 ± 0.14
CGUAUA | -0.76 ± 0.11 | 1.3 ± 0.1 | -0.4664 ± 0.0033 | 1.45 ± 0.13
AGUUUA | -0.489 ± 0.04 | 1.53 ± 0.068 | -0.25 ± 0.013 | 1.72 ± 0.12
UGUAGU | 0.04 ± 0.16 | 1.66 ± 0.051 | 0.343 ± 0.011 | 1.86 ± 0.12
CGCCUA | -0.608 ± 0.088 | 1.37 ± 0.12 | -0.414 ± 0.049 | 1.58 ± 0.12

Variant | FACS-Seq fitted mean (log10) (cyclic di-GMP [1]) | normalized RNA/DNA level without ligand (log10) (cyclic di-GMP [2]) | FACS-Seq fitted mean (log10) (cyclic di-GMP [3]) | normalized RNA/DNA level with ligand (log10) (cyclic di-GMP [4])
CGCCUC | 0.0848 ± 0.15 | 1.713 ± 0.011 | 0.399 ± 0.0065 | 1.85 ± 0.067
CGCCUU | -0.439 ± 0.021 | 1.5321 ± 0.00037 | -0.126 ± 0.059 | 1.72 ± 0.13
CUAACU | -0.381 ± 0.006 | 1.59 ± 0.025 | -0.0873 ± 0.0047 | 1.74 ± 0.1
AGCUUG | -0.0154 ± 0.14 | 1.59 ± 0.041 | 0.223 ± 0.0032 | 1.81 ± 0.14
CGCUUU | -0.255 ± 0.035 | 1.46 ± 0.071 | 0.0291 ± 0.018 | 1.69 ± 0.073
CGCUUA | -0.545 ± 0.077 | 1.27 ± 0.17 | -0.264 ± 0.015 | 1.46 ± 0.036
UGCGAG | -0.503 ± 0.0063 | 1.7 ± 0.039 | -0.177 ± 0.052 | 1.8 ± 0.081
AGCCUU | 0.0156 ± 0.081 | 1.712 ± 0.003 | 0.33 ± 0.038 | 1.85 ± 0.084
AGCCUA | -0.0368 ± 0.15 | 1.62 ± 0.011 | 0.288 ± 0.026 | 1.8 ± 0.15
UGGUCG | -0.511 ± 0.12 | 1.77 ± 0.034 | -0.326 ± 0.0047 | 1.89 ± 0.045
AGUAGG | -1.02 ± 0.098 | 1.63 ± 0.097 | -0.997 ± 0.068 | 1.75 ± 0.049
AGUAGU | 0.132 ± 0.03 | 1.64 ± 0.066 | 0.367 ± 0.029 | 1.78 ± 0.13
AGUAGA | -0.549 ± 0.05 | 1.36 ± 0.12 | -0.22 ± 0.075 | 1.56 ± 0.086
CGUGCG | -0.833 ± 0.015 | 1.8 ± 0.02 | -0.561 ± 0.012 | 1.83 ± 0.11
CGUGCA | -0.119 ± 0.16 | 1.68 ± 0.078 | 0.0822 ± 0.039 | 1.79 ± 0.1
UGUGGG | -0.327 ± 0.023 | 1.74 ± 0.03 | -0.0766 ± 0.022 | 1.86 ± 0.12
AGGCAG | -0.6414 ± 0.0033 | 1.758 ± 0.0064 | -0.399 ± 0.084 | 1.83 ± 0.097
UGCUUU | 0.0721 ± 0.19 | 1.73 ± 0.025 | 0.309 ± 0.091 | 1.87 ± 0.11
AGCGGU | -0.189 ± 0.03 | 1.64 ± 0.024 | 0.149 ± 0.093 | 1.8 ± 0.1
AGGAGA | -0.574 ± 0.012 | 1.37 ± 0.12 | -0.304 ± 0.011 | 1.48 ± 0.025
UGGUGA | -0.506 ± 0.1 | 1.57 ± 0.12 | -0.257 ± 0.04 | 1.75 ± 0.1
GGGGAC | 0.068 ± 0.1 | 1.65 ± 0.027 | 0.307 ± 0.041 | 1.8 ± 0.17
CGGGUA | -0.076 ± 0.13 | 1.67 ± 0.023 | 0.207 ± 0.099 | 1.75 ± 0.081
